Test results from US20240294613A1 (BROAD INSTITUTE, published 2024).

Columns and labels:
[1] = target: SARS-COV-2 full-length S (containing G at position 614) (SARS-COV-2, UniProt P0DTC2 14-1273); assay: cell-based or functional assay
[2] = target: SARS-COV-2 full-length S (containing G at position 614) (SARS-COV-2, UniProt P0DTC2 14-1273); assay: cell-based or functional assay; remark: listed apart in the source

B1: BG1-15 dimeric IgA (antibody, V domains shown)
VH: DVQLVESGGVVVQPGGSLRLACAASGFTFDDYAMHWVRQAPGKGLEWVSLITRDGGSTHYADSVKGRFTISRDNSKNSLYLQMNSLRLEDTAFYYCAKDGRRDGYNHALDNWGQGTLVTVSS
VL: DIQMTQSPSTLSASVGDRVTITCRASQSISSWLAWYQQKPGKAPKLLINRASSLESGVPSRFSGSGSGTEFTLTISSLQPDDFATYYCQQYSSYPTFGQGTKVEIKR
B1 was tested, and the “IC50, SARS-COV-2 pseudovirus neutralization” value [1] was 6.5 µg/mL.

B2: BG7-18 (antibody, V domains shown)
VH: EVQLMESGGGLIQPGGSLRLSCAASGFIVSSNYMSWVRQAPGKGLEWVSVIYSGGGTDYADSVKGRFTISRDNSKNTLFLQMNSLRAEDTAVYYCARGAAMVKELFDYWGQGTQVTVSS
VL: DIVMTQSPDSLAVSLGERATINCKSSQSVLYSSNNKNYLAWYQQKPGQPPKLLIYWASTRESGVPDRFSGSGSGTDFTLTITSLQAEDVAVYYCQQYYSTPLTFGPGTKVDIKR
For B2, the “PV IC50” value [2] was 0.083 µg/mL.

B3: BG7-15 (antibody, V domains shown)
VH: QVQLVQSGAEVKKPGASVKVSCKASGYTFTSYAISWVRQAPGQGLEWMGWVSAYNGNTNYAQKLQGRVTMTTDTSTNTAYMELRSLRSDDTAIYYCAIPYSSVTFDCWGQGTLVTVSS
VL: EIVLTQSPGTLSLSPGERATLSCRASQSVSGTFLAWYQQKPGQAPRLLISGASSRATGIPDRFSGSGSGTDFTLTISRLEPEDFAVYYCQQYGSSRPTFGQGTKLEIKR
With B3 the “PV IC50” value [2] was 0.016 µg/mL.

B4: BG10-8 dimeric IgA (antibody, V domains shown)
VH: QMELVESGGGLVKPGGSLRLSCASSGFSLGDYYMTWIRQAPGKGLEWVSYISRSDGKTFYADSVKGRFTLSTDDGKKSLYLQMNSLRAEDTAVYYCVRGEGGPHDAFDIWGQGTMVTVSS
VL: TSYVLTQPPSVSVAPGQTARISCGGNNIESKTVHWYQQKPGQAPILVVYDDNDRPSGIPERFSGSNSGNTATLSISRAEAGDEADYYCQVWDSSRDLRVFGGGTKLSVLG
In the case of B4, the “IC50, SARS-COV-2 pseudovirus neutralization” value [1] is reported as 0.026 µg/mL and the “molar neutralization ratio (MNR)” value [1] is reported as 10.9.
